Experimental findings from the nanobody polyreactivity screen of Harvey et al. (2022) are described below.

This data set can be described thus: yeast display, Sf9 membrane polyspecificity reagent, FACS + sequencing; frameworks hold sequencing errors. The gist of the method:
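Galactose-induced (36–48 hours) yeast carrying a synthetic nanobody display library were exposed to 10% biotinylated, detergent-solubilized Sf9 membrane reagent at 4 °C for 1 hour. FACS followed streptavidin microbead enrichment, using low and high (top ~1%) gates for expression (anti-HA) and reagent binding (streptavidin). Colony PCR, MiSeq 2 × 250 sequencing and CDR-length filtering followed. Labels for polyreactivity reflect the gate of origin.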
For “QVQLVESGGGLVQAGGSLRLSCAASGRIFGGYAMGWYRQAPGKERELVAVINGGTSTKYADSVKGRFTISRDNAKNTVYLQMNSLKPEDNAVYYCAKTRHDSLQNRNRYDYWGQGTQVTVSS”, the “polyreactivity (PSR sort gate)” value is recorded as “low polyreactivity”.

For the sequence “QVQLVESGGGLVQAGGSLRLSCAASGFIFASNAMGWYRPAPGKERELVAAISTNGGSTNYADSVKGRFTISRDNAKKTVYLQMNSLKPEDTAVYYCNTDFPTQYGTRIGDDYWGQGTQVTVSS”, the “polyreactivity (PSR sort gate)” value was “low polyreactivity”.

On to “QVQLVESGVGLVQAGGSLRISCAASGRILGYYAMGWYRQAPGKEREMVAGISYSAGRTYYADSVKGRFTISRDNAKNTVYLQMNSLKPEDTAVYYCAKALVRSGSTRGTTGYYYWGQGTQVTVSS”, for which the “polyreactivity (PSR sort gate)” value was “high polyreactivity”.

On to “QVQLQESGGGLVRAGGSLRLSCAASGYISTSIAMGWYRQAPGKERELVASFGGGAITNYADSVKGFTISRDNGKNTVYLQMNCLKPEDTAVYYFAVYHGDRGYYSYWGQGTQVTVSS”, for which the “polyreactivity (PSR sort gate)” value is “low polyreactivity”.

For “QVQLVQSWPGLVQEGGSLRLSSAESGYTIRWYAMGCYRQAHGKERELVASITSGGNTNYADSVKGRFTISRDNAKNTVYLQMNRLKTEDTEVYYCAATRGYYRLDYWGQGTQVTVSS”, the “polyreactivity (PSR sort gate)” value is “high polyreactivity”.

Regarding “QVQLVESGGGLVQAGGSLRLSCAASGRTFWSNAMGWYIQAPGKERELVAVIYTTTGNTYYADSVKGRFSISRDYAKNTVYLQMNSLKPEDTAVYYCNTRSGAFFLSKPYDYWGQGTQVTVSW”, the “polyreactivity (PSR sort gate)” value was “low polyreactivity”.

Regarding “QVQLVESGGGLVQAGGSLRLSSAATGYIYSHNAMGWYRQSPGKEREFVAGIDSSGGSTSYADSVKGRFTISRDNAKNTVYLQMNSLKPEDTAVYYCAADRTGSHFDYCGQGTQVTVSS”, the “polyreactivity (PSR sort gate)” value was “low polyreactivity”.

For the sequence “QVQLVESGGGLVQAGASLRLSCAASGNIFGLYAMGWYRPAPGKERELVAAISDGVSTNYADSVKGRFTISRDNAKITVYLQMNSLKPEDTAVYYCAADQEGYGNWDSEYDYWGQVTQVTVSS”, the “polyreactivity (PSR sort gate)” value is “low polyreactivity”.

Turning to “QVQLVESRGCLVQAGGSLRLSCAASGSISIKNAMGWYRQAPGKERELVATITYNGGSTYYADSVKGRFTISRDNAKNTVYLQMNSLKPEDTAVYYCARDAFEPYDVGEYYYWGQGTQVTVSS”, the “polyreactivity (PSR sort gate)” value is given as “low polyreactivity”.

With “QVQLVESGGGLVQAGGSLRLSCAASGRIIGPYTMGWYRQAPGKEMEFVAAITRRGGSTYYADSVKGRFTISRDNAKNTVYLQMNSLKPEDTEVYYCAAVGQKRSLGYSWGQGTQVTVSS”, the “polyreactivity (PSR sort gate)” value was “low polyreactivity”.

With “QVQLVESGGCLVQAGGSLRLSCASSGSTFVRYTLGRYRQAPGKEREMVARISRTSSTNYADSVKGRFTISRDNAKNTVYLQMNSLKPEDTSVYYCNAREYYPTKSRFKYWGQGTQVTVSS”, the “polyreactivity (PSR sort gate)” value was “low polyreactivity”.

Turning to “QVQLVESGGGLVQAGGSLRLSCAASGRIFGTNAMGWYRQAPGKERELVATITRGGGNTYYADSVKGRFTISRDNAKNTVYLQMNSLKPEDTAVYYCAAKFHRFAWYSHYDYWGQGTQVTVSS”, the “polyreactivity (PSR sort gate)” value is recorded as “low polyreactivity”.

As for “QVQLVESGGGLVQAGGSLSLSCAASGLILRSYAMGWYRQAPWKERELVAAISGSGGRTYYADSVKGRFTISRDNAKNTVYLLMNSLKPEDTAVYYCAAGWTYRQNGYWGQGTQVTVSS”, the “polyreactivity (PSR sort gate)” value is recorded as “high polyreactivity”.

On to “QVQLVESGGGLVQAGGSLRLSCAASGLTFEDNDMGWYRQAPGKERELVAAISSAGSTSYADSVKGRFTISRDNAKNTVYLQMNSLKPEDTAVYYCAKRYYLYHYDSWGQGTQVTVSS”, for which the “polyreactivity (PSR sort gate)” value was “low polyreactivity”.

In the case of “QVQLVESGGGLDQAGRSLRLSCAASGRTDVTYAMGWYRQAPGKEREFVAAISASGGTTYYADSVKGRFTISRDNSKNTVYLQMNSRKPEDTAVYYCAADIRGTVYLSSFWMEYWGQGTQVNVSS”, the “polyreactivity (PSR sort gate)” value was “low polyreactivity”.

With “QVQLVESGGGLVQAGGSLRLSCAASGITLYRYVMGWYRQAPGKERELVADISGRGTSTYYADSVKGRFTISRDNAKNTVYLQMNSLKPEETAVYYCNAEYTKTGALVIPYTYYYAEDYWGQGTQVTVSS”, the “polyreactivity (PSR sort gate)” value was “low polyreactivity”.

Take “QVQLVESGGGLVQAGGSLRLICAASGLIFDYYAMGWYRQSPGKDRELVAAITSSSGITYYADSVKGRFTISRDNAKNTVSLQMNSLKPEDTAVYYCNADTRTTTRRFNPYDYWGQGTQVTVSS”: the “polyreactivity (PSR sort gate)” value is reported as “low polyreactivity”.

As for “QVQLVESGGGLVQAGGSLRLSCAASGFIFQRYAMGCYRQAPGKERELVAAISKGGGNTYYADSVKGRFTISRDNAKKTVYLQMNSLKPEDTAVYYCNAVPRPDHDYWGQGTQVTVSS”, the “polyreactivity (PSR sort gate)” value is reported as “high polyreactivity”.

For the sequence “QVQLVESGGGLVQAGGSLRLSCAASGSTFRYNAMGWYRQAPGKERELVAAITSSGSRTYYADSVKGRFTISRDNAKNTVYFQMISLKPEDTAVYYCAAYGYYTKVTKYDYWGQGTQVTVSS”, the “polyreactivity (PSR sort gate)” value is given as “high polyreactivity”.

Turning to “QVQLVDSGGGLVQAGGSLRLSCAASGITSHYYAMGWYRQAPGKERELVAAITSSGSTYYADSVKGRFTISRDNAKNTVYLQMNSLKPEVTAVYYCATTVWYKKAPYPDGDYWGQGTQVTVSS”, the “polyreactivity (PSR sort gate)” value was “low polyreactivity”.

Take “QVQLVESGGGLVQAGGSLRLSCAASGFTLWLNAMGWYRQAPGKERELVAAITTSDDGTYYADSVKGRFTISRDNAKKTVYLQMNSLKPEDTAVYYCAADYYSVLYDYWGQGTQVTVSS”: the “polyreactivity (PSR sort gate)” value is “low polyreactivity”.

Turning to “QVQLVESGGGLVQAGGSLRLSCAASGSIFAQYAMGWYRQAPGKETELVAAISYRGGRTYYADSVKGRFTISRDNAKNTVYLQMNSLKPEDTAVYYCNADSSSYSSDLGYDYWGQGTQVTVSS”, the “polyreactivity (PSR sort gate)” value was “low polyreactivity”.

As to “QVQLVESGGGLVQAGGSLRLSCAASGITFGWYAMGWYRQAPGKERELVAAISGRGGRTYYADSVKGRFKISRDNAKNTVYLQMNSLKPEDTAVYYCAARARRWSYITGSYVLIEYEYWGQGTQVTVSS”, the “polyreactivity (PSR sort gate)” value is recorded as “high polyreactivity”.

As for “QVQLVESGGGLVQAGGSLRLSCAASGSIFYYNTMGWYRQAPGKAREFVADISVNGGSTYYADSVKGRFTISRDNAKNTVYLQMNSLKPEDSAVYYCAARRYQRPHGLYGYWGQGTQVTVSS”, the “polyreactivity (PSR sort gate)” value was “low polyreactivity”.

Regarding “QVQLVESGGGLVQAGGSLRLSCAASGFTFAVYAMGWYRQAPGKERELVAAINRGGGSTYADSVKGRFTISRDTAKNTVYLQMNSLKPEDTAVYYCAARVYGTRKINYSWGQGTQVTVSS”, the “polyreactivity (PSR sort gate)” value is “high polyreactivity”.

Turning to “QVQLVESGGGLVQAGGSLRLSCAASGRIFHYYAMGWYRQAPGIERELVAAIRYSGGRTYYADSVKGRFTISRDNAKNTVYLQMNSLKPEDTAFYYCNAVPYVYKTITGDDYWGQGTQVTVSS”, the “polyreactivity (PSR sort gate)” value is “high polyreactivity”.

Regarding “QVQLVESGGGLVQAGGSLRLSCAASGITFAYYGMGWYRQAPGKERELVAAISWTGSSTYYADSVKGRFTISRDNAQNTVYLQMNSLKPEDTAVYYCAARQRYRYDYWGQGTQVTVSS”, the “polyreactivity (PSR sort gate)” value is given as “high polyreactivity”.

As to “QVQLVESGGGLVQAGGSLRLSCAASGRIFGVYAMGWYRQAPGKEREFVASITRGGGRTYYADSVKGRFTISRDNAKNTVYLQMNSLKPEDTAVYYCNAVVNSYPYYYWGQGTQVTVSS”, the “polyreactivity (PSR sort gate)” value was “high polyreactivity”.

Regarding “QVQLVESGGGLVQAGGSLRLSCAASGFIFTANAMGWYRQAPGKERELVAAINWSDGGTYYADSVKGRFTISRDNAKNTVYLQMNSLKPEDTAVYYCNAQWAWTYYYWGQGTQVTVSS”, the “polyreactivity (PSR sort gate)” value was “low polyreactivity”.

“QVHLVDSGGRLVQAGGSLRLSCSASGNNFPGYAMGLYRQAPGKEREFVATITSNDGTTYYADSVKGRFTISRDNAMNTFFLQMNSLKPEDTAVYYCASVVRQYGFDYLGQGTQVTVSS”: the “polyreactivity (PSR sort gate)” value is reported as “low polyreactivity”.

With “QVQLVESGGGLVQAGGSLRLSCAASGITIGRYAMGWYRQAPGKERELVAAISSTGGRTYYADSVKGRFTISRDNAKNTVYLQMNSLKPEDTAVYYCAKKFAVFVSGYGYWGQGTQVTVSS”, the “polyreactivity (PSR sort gate)” value is listed as “high polyreactivity”.

On to “QVQLVESGGGLVQAGGSLRLSCAASGRIFYPYAMGWSRQAPGKERELVAAISSSAGITYYADSVKGRFTISRDNAKKTVYLQMNSLKPEDTAVYYCAKYPVRNPYGYRYDYWGQGTQVTVSS”, for which the “polyreactivity (PSR sort gate)” value is listed as “high polyreactivity”.

“QVQHVESGGGLVQAGGSLRLSCAASGSTFSANAMGWYRQAPGKERELVAVIRRGGSTTYADSVKGRFTISRDNAKNTVYLQMNSLKPEDTAVYYCNARVTLGRPLFTYLVRYEYWGQGTQVTVSS”: the “polyreactivity (PSR sort gate)” value is given as “high polyreactivity”.

“QVQLVESGGGFVQAGGSLRLSCAASGRTYTLNAMRWYRQAPGKERELVAAITWGAGSTYYADSVKGRFTISRDNAKNTVYLQMNSLKPEDTAVYYCAARFHGAYYRYRSPSMYYWGQGTQVTVSS”: the “polyreactivity (PSR sort gate)” value is recorded as “high polyreactivity”.

Take “QVQLVESGGGLVQAGGSLRLSCAASGRIFNRNAMGWYRQAPGKERELVASISSGGRTNYADSVTGRFTISRDNAKNTDYLQMNSLKPEDTAVYYCAAKSPRILLDYWGQGTQVTVSS”: the “polyreactivity (PSR sort gate)” value is recorded as “low polyreactivity”.

Regarding “QVQHVESGGGLVQAGGSLRLSCAASGRTFIINTMGWYRQAPGKERELVAAISKFGATTNYADSVKGRFTISRDNAKNTVYLQMNSLKPEDTAVYYCNARYSGYLRLDYWGQGTQVTVSS”, the “polyreactivity (PSR sort gate)” value is listed as “low polyreactivity”.

Regarding “QVQLVESGGGLVQAGGSLRLSCAASGITFGSYDMGWYRQAPGKERELVAAIDSDGGTYYADSVKGRFTISRDNAKNTVYLQMNSLKPEDTAVYYCAALLRSFPPYSFYYWGQGTQVTVSS”, the “polyreactivity (PSR sort gate)” value is “high polyreactivity”.

Regarding “QVHLVESGGGLVQAGGILRLSSPASGSISGWYAMGWSRQEPGKERELVSDMTRGGRTYYADSVKGRFTISRDNAKNTVYLQMNSLKPEDTAVYYCASPSPSYYYRSGWGSYYSWGLGTQVTVSS”, the “polyreactivity (PSR sort gate)” value is “high polyreactivity”.

For the sequence “QGQLVETGGGLGQAGGSLRLSCAASGIIFYYYAMGWYRQAPGKERELVAAITGTGSRTYYADSVKGRFTISRDNAKNTVYIQMNSLKPEDTAVYYCYARSFATCSKVPARGYWGQGTQVTVSS”, the “polyreactivity (PSR sort gate)” value is given as “high polyreactivity”.

Turning to “QVQLVESGGGLVQAGGSLSLSCAASGRTFVPYAMGWYRQAPGKERELVADITDGDGSTYADSVKGRFTISRDNAKNTVYLQMNSLKPEYTAVYYCAAQSRRLVTRWPVTFGYWGQGTQVTVSS”, the “polyreactivity (PSR sort gate)” value is “low polyreactivity”.

For “QVQLVESGGGLVQAGGSLRLSCAASGGTFSLNAMGWSRQAPGKERELVAAITYSTGRTHYADSVKGRFTISRDNAKNTVYLQMNSLKPEDTAVYYCAARVYGTKMDYWGQGTQVTVSS”, the “polyreactivity (PSR sort gate)” value was “high polyreactivity”.
